From US20220193232A1

What was measured:
[1] = target: kappa myeloma antigen (KMA) (human); assay: cell-based or functional assay
Fc-receptors = assay: cell-based or functional assay

Work on “KM.CAR_8a_28TM_41BBz (from UniProt P01732 138-182; P10747 153-179; Q07011 214-255) (receptor)” yielded a CAR expression (GFP) in culture in the presence of JJN3 [1] of 5% and an expansion of CAR T-cell culture in the presence of JJN3 [1] of 8 fold.
Work on KM.CAR-hCH2CH3-28z (receptor) yielded an enrichment of CAR expressing T-cells in culture with PBMC alone (% of CD3+ T-cells) (Fc-receptors) of 28.
“KM.CAR_h_28TM_41BBz (from UniProt P10747 153-179; Q07011 214-255) (receptor)” showed a CAR expression (GFP) in culture with JJN3 [1] of 17% and an expansion of CAR T-cell culture with JJN3 [1] of 5 fold.
